Binding and Kd data for 2 substances are collected here from paper doi:10.1101/2025.07.24.666505.

The target of data set [1] is DNA gyrase (GyrA+GyrB, full Gyrase);VcParE2 (Escherichia coli;Vibrio cholerae) (UniProt P0AES4+P0AES6+Q9KMJ0). Kind of data set: EMSA.
Data set [2] addresses Vibrio cholerae ParE2 (VcParE2), wild type, C-terminally histidine-tagged (Vibrio cholerae). The data set is described as follows: BLI. (In general: In BLI a coated tip is dipped into the sample, and binding shifts an interference pattern.)

UniProt P0AES4, sequence (P0AES4 whole entry, one chain of several): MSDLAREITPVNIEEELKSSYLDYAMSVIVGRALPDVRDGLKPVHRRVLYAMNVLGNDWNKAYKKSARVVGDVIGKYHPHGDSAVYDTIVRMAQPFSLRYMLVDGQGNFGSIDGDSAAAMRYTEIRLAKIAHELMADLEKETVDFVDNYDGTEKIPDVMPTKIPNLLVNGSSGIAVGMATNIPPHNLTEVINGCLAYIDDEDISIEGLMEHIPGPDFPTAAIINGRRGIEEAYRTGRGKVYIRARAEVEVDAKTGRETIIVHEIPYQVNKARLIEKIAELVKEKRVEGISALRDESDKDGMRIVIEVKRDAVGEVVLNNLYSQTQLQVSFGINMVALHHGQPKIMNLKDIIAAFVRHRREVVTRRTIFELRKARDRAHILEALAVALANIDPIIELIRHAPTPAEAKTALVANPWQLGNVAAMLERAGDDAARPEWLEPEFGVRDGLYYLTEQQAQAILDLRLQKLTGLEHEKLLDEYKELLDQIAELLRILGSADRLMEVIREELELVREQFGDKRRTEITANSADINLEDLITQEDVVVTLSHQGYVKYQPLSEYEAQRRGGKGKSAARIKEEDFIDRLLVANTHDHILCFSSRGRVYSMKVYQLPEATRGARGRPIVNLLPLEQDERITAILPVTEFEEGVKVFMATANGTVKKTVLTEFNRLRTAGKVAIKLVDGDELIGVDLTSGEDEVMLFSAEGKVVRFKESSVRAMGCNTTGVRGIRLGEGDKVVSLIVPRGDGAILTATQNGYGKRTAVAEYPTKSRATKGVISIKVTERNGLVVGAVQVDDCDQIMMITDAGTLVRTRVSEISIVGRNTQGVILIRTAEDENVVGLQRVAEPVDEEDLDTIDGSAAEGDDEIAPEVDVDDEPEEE

“GCTGCTCATCATGGTTTGTGAGCAGTCAGTTTGCGGGAGGTGCGGGAAAATCTGGGGTTATGCTATTTGAGTACTGGAGAAAGAAAGTGAAAGGAAGATAAAACGGGATTCATACACCGTTAAATACCGGTTTAAAAATCCCGTGGCGCGTTTTAAAAAATCTGTGCGGCTGATTTTATGCCTGATTCTGTTTATTGCCTCAGAGCGGCGCTGACGCGTTTTCTGATGGCATCAAAAATTTCCTGTTCCCCGGTCTTATCCAGCCCCATATAAGGACGCGCAGGAA (double strand) [286-bp Mu strong gyrase site fragment]”: the binding result in data set [1] is reported as “binds”.
The term Kd denotes the concentration at which binding is half-saturated. Substance “VcParD2 peptide E41-S60 (N-terminal helix of the C-terminal domain)” displayed a Kd in data set [2] of 778 nM.
